Measured values published in US6410715 (QUESTCOR PHARMACEUTICALS, dated 2002).
Blank lines part the entries; values can stand above or below the molecule they belong to.

How the values were obtained:
[1] = target: 4E-BP1 prepared from untreated rat adipose tissue (rat) (UniProt Q62622); test: far-Western on blotted heat-stable adipose tissue proteins, pool 1, no insulin
[2] = target: 4E-BP1 prepared from untreated rat adipose tissue (rat) (UniProt Q62622); test: far-Western on blotted heat-stable adipose tissue proteins, pool 2, no insulin
[3] = target: 4E-BP1 prepared from untreated rat adipose tissue (rat) (UniProt Q62622); test: far-Western on blotted heat-stable adipose tissue proteins, pool 3, no insulin
[4] = target: 4E-BP1 prepared from insulin-treated rat adipose tissue (rat) (UniProt Q62622); test: far-Western, pool 1, insulin-treated against untreated tissue of the same pool
Sequence of 4E-BP1 prepared from insulin-treated rat adipose tissue (rat) (Q62622 2-117 limits assumed): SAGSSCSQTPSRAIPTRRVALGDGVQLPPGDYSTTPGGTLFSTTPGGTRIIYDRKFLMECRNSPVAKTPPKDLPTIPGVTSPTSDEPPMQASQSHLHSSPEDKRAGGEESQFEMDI

[5] = target: 4E-BP1 prepared from insulin-treated rat adipose tissue (rat) (UniProt Q62622); test: far-Western, pool 2, insulin-treated against untreated tissue of the same pool
[6] = target: 4E-BP1 prepared from insulin-treated rat adipose tissue (rat) (UniProt Q62622); test: far-Western, pool 3, insulin-treated against untreated tissue of the same pool
[7] = target: 4E-BP1 prepared from insulin-treated rat adipose tissue (rat) (UniProt Q62622); test: far-Western on blotted heat-stable adipose tissue proteins, pool 1, insulin 80 nM
[8] = target: 4E-BP1 prepared from insulin-treated rat adipose tissue (rat) (UniProt Q62622); test: far-Western on blotted heat-stable adipose tissue proteins, pool 2, insulin 80 nM
[9] = target: 4E-BP1 prepared from insulin-treated rat adipose tissue (rat) (UniProt Q62622); test: far-Western on blotted heat-stable adipose tissue proteins, pool 3, insulin 80 nM
[10] = target: eIF-4E of human HTK-143 cells (human) (UniProt P06730); test: cell-based or functional assay
Sequence of eIF-4E of human HTK-143 cells (human) (P06730 2-217 limits assumed): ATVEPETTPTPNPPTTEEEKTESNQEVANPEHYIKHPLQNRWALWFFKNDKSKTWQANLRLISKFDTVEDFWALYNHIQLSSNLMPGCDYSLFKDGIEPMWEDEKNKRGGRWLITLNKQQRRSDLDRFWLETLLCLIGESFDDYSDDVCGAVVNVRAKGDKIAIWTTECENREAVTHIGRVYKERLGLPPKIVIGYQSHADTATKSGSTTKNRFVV

[11] = target: eIF-4E of rabbit reticulocyte lysate (rabbit, UniProt P29338 2-217); test: cell-based or functional assay
Sequence of eIF-4E of rabbit reticulocyte lysate (P29338 2-217 limits assumed): as the sequence (P06730 2-217 limits assumed) above, with T15P, T16A, E173D counted along it

Sequence of 4E-BP1 prepared from untreated rat adipose tissue (rat) (Q62622 2-117 limits assumed): as the sequence (Q62622 2-117 limits assumed) above

Molecule: 32P-labelled HMK-eIF-4E probe
Relative amount of HMK-eIF-4E bound (relative amount (Phosphorimager)) [1]: 152 | Relative amount of HMK-eIF-4E bound (relative amount (Phosphorimager)) [2]: 210 | Relative amount of HMK-eIF-4E bound (relative amount (Phosphorimager)) [3]: 214 | Fold reduction [4]: 3.7 fold | Fold reduction [5]: 3 fold | Fold reduction [6]: 3.6 fold | Relative amount of HMK-eIF-4E bound (relative amount (Phosphorimager)) [7]: 41 | Relative amount of HMK-eIF-4E bound (relative amount (Phosphorimager)) [8]: 70 | Relative amount of HMK-eIF-4E bound (relative amount (Phosphorimager)) [9]: 60

Molecule: 4E-BP2 (human, protein of 120 amino acids)
CAT (%), cap-dependent expression from pGEMCAT/EMC/LUC in HTK-143 cells co-transfected with pRc/CMV/4E-BP2 (% of reporter plasmid alone) [10]: 26 | CAT (%), cap-dependent expression from pGEMCAT/polio/LUC in HTK-143 cells co-transfected with pRc/CMV/4E-BP2 (% of reporter plasmid alone) [10]: 24 | inhibition of CAT expression in transfected HTK-143 cells [10]: 4 to 5 fold

The remaining lines, values ahead:

CAT (%), cap-dependent expression from pGEMCAT/EMC/LUC in HTK-143 cells co-transfected with pRc/CMV/4E-BP1 (% of reporter plasmid alone) [10]: 28 | CAT (%), cap-dependent expression from pGEMCAT/polio/LUC in HTK-143 cells co-transfected with pRc/CMV/4E-BP1 (% of reporter plasmid alone) [10]: 22 | inhibition of CAT expression in transfected HTK-143 cells [10]: 4 to 5 fold
Molecule: 4E-BP1 (human, protein of 118 amino acids)

inhibition of translation of CAT (cap-dependent) [11]: ~5 fold
B1: GST-4E-BP2 fusion protein (other, not shown: a dimerising Fc or GST; large carriers; small tags and cut ends)
chain: MSSSAGSGHQPSQSRAIPTRTVAISDAAQLPHDYCTTPGGTLFSTTPGGTRIIYDRKFLLDRRNSPMAQTPPCHLPNIPGVTSPGTLIEDSKVEVNNLNNLNNHDRKHAVGDDAQFEMDI
